The labels stand for the following.
B1: BMP7: bone morphogenetic protein 7, R&D systems, 100 ng/ml (protein, UniProt P18075 293-431, looked up)
Bone morphogenetic protein 7: STGSKQRSQNRSKTPKNQEALRMANVAENSSSDQRQACKKHELYVSFRDLGWQDWIIAPEGYAAYYCEGECAFPLNSYMNATNHAIVQTLVHFINPETVPKPCCAPTQLNAISVLYFDDSSNVILKKYRNMVVRACGCH
B2: BMP4: bone morphogenetic protein 4, R&D systems, 100 ng/ml (protein, UniProt P12644 293-408, looked up)
Bone morphogenetic protein 4: SPKHHSQRARKKNKNCRRHSLYVDFSDVGWNDWIVAPPGYQAFYCHGDCPFPLADHLNSTNHAIVQTLVNSVNSSIPKACCVPTELSAISMLYLDEYDKVVLKNYQEMVVEGCGCR
B3: IL-33: Interleukin-33, Peprotech, 50 ng/ml (protein, UniProt O95760 1-270, looked up)
Interleukin-33: MKPKMKYSTNKISTAKWKNTASKALCFKLGKSQQKAKEVCPMYFMKLRSGLMIKKEACYFRRETTKRPSLKTGRKHKRHLVLAACQQQSTVECFAFGISGVQKYTRALHDSSITGISPITEYLASLSTYNDQSITFALEDESYEIYVEDLKKDEKKDKVLLSYYESQHPSNESGDGVDGKMLMVTLSPTKDFWLHANNKEHSVELHKCEKPLPDQAFFVLHNMHSNCVSFECKTDPGVFIGVKDNHLALIKVDSSENLCTENILFKLSET
B4: CTGF: Connective tissue growth factor, Peprotech, 20 ng/ml (protein, UniProt P29279 27-349, looked up)
CCN family member 2: QNCSGPCRCPDEPAPRCPAGVSLVLDGCGCCRVCAKQLGELCTERDPCDPHKGLFCHFGSPANRKIGVCTAKDGAPCIFGGTVYRSGESFQSSCKYQCTCLDGAVGCMPLCSMDVRLPSPDCPFPRRVKLPGKCCEEWVCDEPKDQTVVGPALAAYRLEDTFGPDPTMIRANCLVQTTEWSACSKTCGMGISTRVTNDNASCRLEKQSRLCMVRPCEADLEENIKKGKKCIRTPKISKPIKFELSGCTSMKTYRAKFCGVCTDGRCCTPHRTTTLPVEFKCPDGEVMKKNMMFIKTCACHYNCPGDNDIFESLYYRKMYGDMA

This assay deals with CFPAC-1 cells. Put plainly: Induction of EMT by growth factors and cytokines, E-cadherin and vimentin immunoblotting. In kind it is cell-based, human. To be noted: CFPAC-1 cells treated 7 days with ligand. How it is done: The CFPAC1 cell line was cultured in DMEM media (Gibco #11960) supplemented with 10% FBS (Sigma), 2 mM L Glutamine (Gibco), at 37° C., 5% CO2. For 7 day treatments, cells were seeded on tissue culture plastic in complete growth media and allowed to attach overnight at cell densities that would provide approximately 60-80% confluence at end of experiment. Ligand and/or inhibitor was added the following day (Day 0) in complete growth media and incubated at 37° C., 5% CO2. Ligand source and concentrations used are as follows: [1] From R&D systems, SDF-1α (stromal derived factor-1 alpha) at 100 ng/ml, TRANCE (TNF-related activation induced cytokine) at 50 ng/ml, FGF1 (fibroblast growth factor acidic) at 10 ng/ml, FGF2 (fibroblast growth factor basic) at 10 ng/ml, BMP4 (bone morphogenetic protein 4) at 100 ng/ml, BMP7 (bone morphogenetic protein 7) at 100 ng/ml, IGF2 (insulin-like growth factor 2) at 100 ng/ml, OSM (Oncostatin M) at 100 ng/ml, NRG1 (Neuregulin-1) at 50 ng/ml, PDGFaa (Platelet derived growth factor a) at 50 ng/ml, PDGFbb (platelet derive growth factor b) at 30 ng/ml, Ang2 (Angiopoeitin 2) at 400 ng/ml, amphiregulin at 100 ng/ml, HMGB 1 (Human high-mobility group box 1 protein) at 50 ng/ml; [2] From Genscript, LIF (Leukemia inhibitory factor) at 20 ng/ml, GM-CSF (Granulocyte macrophage colony stimulating factor) at 25 ng/ml, M-CSF (Macrophage colony stimulating factor) at 50 ng/ml; [3] From Anaspec, PAR1 (Protease activated receptor 1 agonist) at 100 μM; PAR2 (Protease activated receptor 2 agonist; peptide SLIGKV-NH2, Cat. No. 60217-1) at 100 μM; PAR4 (Protease activated receptor […] agonist; peptide AYPGKF-NH2, Cat. No. 60218-1) at 100 μM; [4] From Peprotech, HGF (Hepatocyte Growth Factor) at 100 ng/ml; IL-31 (Interleukin-31) at 50 ng/ml, IL-33 (Interleukin-33) at 50 ng/ml, IL1-a (Interleukin-1 alpha) at 10 ng/ml, CTGF (Connective tissue growth factor) at 20 ng/ml, WISP1 (Wnt-1 inducible signaling pathway protein) at 20 ng/ml, PTHrP ([…] hormone-related protein) at 50 ng/ml, MCP1 (monocyte chemotactic protein-1) at 50 ng/ml; and [5] from Sigma, Fulvestrant at 1 μM. Fresh medium containing ligand and/or inhibitor was added 3-4 days after initial dose, and at Day 7 cells were harvested for western blot analysis.
Cells were harvested by washing once with PBS, and lysing on ice for 10 minutes with scraping (using a Cell Lifter, Corning Inc. #3008) in ice cold RIPA buffer (Sigma R0278) containing Protease inhibitor (Sigma P8340), Phosphatase inhibitors (Sigma P2850, P5726) and 200 μM Sodium Vanadate. Supernatents were micro-centrifuged at max speed, 4° C. for 10 minutes. Protein content was quantitated using the BCA method (Pierce #23225) and samples were normalized to total protein in Laemli buffer and heated at 100° C. for 10 minutes. SDS PAGE was run using a Bis-Tris gel system (Invitrogen NuPAGE) with MOPS buffer (Invitrogen NP0001), transferred onto nitrocellulose using the iBLOT system (Invitrogen) and blocked in PBS-T (0.1% Tween 20), 5% non-fat milk or BSA in guidance with primary Ab supplier requirements. All primary antibodies were incubated overnight at 4° C. in PBS-T (0.1% Tween 20) in either 5% non-fat milk or BSA, diluted to the following working dilutions: anti E Cadherin (Santa Cruz #sc-21791) 1:500 dilution; anti Vimentin (BD Biosciences #550513) 1:2000 dilution;); anti GAPDH HRP conjugate (Santa Cruz sc-25778) 1:1000 dilution; anti β-Actin (Sigma, A5441) 1:10,000 dilution. […]
B1: the “Induction of EMT (E-cadherin down, vimentin up)” value is recorded as “Partial EMT”.
The same measure for B2: “Partial EMT”; for B3: “Partial EMT”.
Turning to B4, the “Induction of EMT (E-cadherin down, vimentin up)” value is “Partial EMT”.

The values above are taken from patent US8642834B2, “Methods for the identification of agents that inhibit mesenchymal-like tumor cells or their formation” (OSI Pharmaceuticals, LLC, priority 2009, dated 2014).
